Patent US20240261423A1 (Pfizer, published 2024)

Molecular target: EDB+FN (fibronectin containing the extra-domain B) on WI38-VA13 cells (human, UniProt P02751 32-2477)
Assay: cell-based or functional assay

Chain of EDB+FN (fibronectin containing the extra-domain B) on WI38-VA13 cells (P02751 32-2477 limits assumed, form in doubt): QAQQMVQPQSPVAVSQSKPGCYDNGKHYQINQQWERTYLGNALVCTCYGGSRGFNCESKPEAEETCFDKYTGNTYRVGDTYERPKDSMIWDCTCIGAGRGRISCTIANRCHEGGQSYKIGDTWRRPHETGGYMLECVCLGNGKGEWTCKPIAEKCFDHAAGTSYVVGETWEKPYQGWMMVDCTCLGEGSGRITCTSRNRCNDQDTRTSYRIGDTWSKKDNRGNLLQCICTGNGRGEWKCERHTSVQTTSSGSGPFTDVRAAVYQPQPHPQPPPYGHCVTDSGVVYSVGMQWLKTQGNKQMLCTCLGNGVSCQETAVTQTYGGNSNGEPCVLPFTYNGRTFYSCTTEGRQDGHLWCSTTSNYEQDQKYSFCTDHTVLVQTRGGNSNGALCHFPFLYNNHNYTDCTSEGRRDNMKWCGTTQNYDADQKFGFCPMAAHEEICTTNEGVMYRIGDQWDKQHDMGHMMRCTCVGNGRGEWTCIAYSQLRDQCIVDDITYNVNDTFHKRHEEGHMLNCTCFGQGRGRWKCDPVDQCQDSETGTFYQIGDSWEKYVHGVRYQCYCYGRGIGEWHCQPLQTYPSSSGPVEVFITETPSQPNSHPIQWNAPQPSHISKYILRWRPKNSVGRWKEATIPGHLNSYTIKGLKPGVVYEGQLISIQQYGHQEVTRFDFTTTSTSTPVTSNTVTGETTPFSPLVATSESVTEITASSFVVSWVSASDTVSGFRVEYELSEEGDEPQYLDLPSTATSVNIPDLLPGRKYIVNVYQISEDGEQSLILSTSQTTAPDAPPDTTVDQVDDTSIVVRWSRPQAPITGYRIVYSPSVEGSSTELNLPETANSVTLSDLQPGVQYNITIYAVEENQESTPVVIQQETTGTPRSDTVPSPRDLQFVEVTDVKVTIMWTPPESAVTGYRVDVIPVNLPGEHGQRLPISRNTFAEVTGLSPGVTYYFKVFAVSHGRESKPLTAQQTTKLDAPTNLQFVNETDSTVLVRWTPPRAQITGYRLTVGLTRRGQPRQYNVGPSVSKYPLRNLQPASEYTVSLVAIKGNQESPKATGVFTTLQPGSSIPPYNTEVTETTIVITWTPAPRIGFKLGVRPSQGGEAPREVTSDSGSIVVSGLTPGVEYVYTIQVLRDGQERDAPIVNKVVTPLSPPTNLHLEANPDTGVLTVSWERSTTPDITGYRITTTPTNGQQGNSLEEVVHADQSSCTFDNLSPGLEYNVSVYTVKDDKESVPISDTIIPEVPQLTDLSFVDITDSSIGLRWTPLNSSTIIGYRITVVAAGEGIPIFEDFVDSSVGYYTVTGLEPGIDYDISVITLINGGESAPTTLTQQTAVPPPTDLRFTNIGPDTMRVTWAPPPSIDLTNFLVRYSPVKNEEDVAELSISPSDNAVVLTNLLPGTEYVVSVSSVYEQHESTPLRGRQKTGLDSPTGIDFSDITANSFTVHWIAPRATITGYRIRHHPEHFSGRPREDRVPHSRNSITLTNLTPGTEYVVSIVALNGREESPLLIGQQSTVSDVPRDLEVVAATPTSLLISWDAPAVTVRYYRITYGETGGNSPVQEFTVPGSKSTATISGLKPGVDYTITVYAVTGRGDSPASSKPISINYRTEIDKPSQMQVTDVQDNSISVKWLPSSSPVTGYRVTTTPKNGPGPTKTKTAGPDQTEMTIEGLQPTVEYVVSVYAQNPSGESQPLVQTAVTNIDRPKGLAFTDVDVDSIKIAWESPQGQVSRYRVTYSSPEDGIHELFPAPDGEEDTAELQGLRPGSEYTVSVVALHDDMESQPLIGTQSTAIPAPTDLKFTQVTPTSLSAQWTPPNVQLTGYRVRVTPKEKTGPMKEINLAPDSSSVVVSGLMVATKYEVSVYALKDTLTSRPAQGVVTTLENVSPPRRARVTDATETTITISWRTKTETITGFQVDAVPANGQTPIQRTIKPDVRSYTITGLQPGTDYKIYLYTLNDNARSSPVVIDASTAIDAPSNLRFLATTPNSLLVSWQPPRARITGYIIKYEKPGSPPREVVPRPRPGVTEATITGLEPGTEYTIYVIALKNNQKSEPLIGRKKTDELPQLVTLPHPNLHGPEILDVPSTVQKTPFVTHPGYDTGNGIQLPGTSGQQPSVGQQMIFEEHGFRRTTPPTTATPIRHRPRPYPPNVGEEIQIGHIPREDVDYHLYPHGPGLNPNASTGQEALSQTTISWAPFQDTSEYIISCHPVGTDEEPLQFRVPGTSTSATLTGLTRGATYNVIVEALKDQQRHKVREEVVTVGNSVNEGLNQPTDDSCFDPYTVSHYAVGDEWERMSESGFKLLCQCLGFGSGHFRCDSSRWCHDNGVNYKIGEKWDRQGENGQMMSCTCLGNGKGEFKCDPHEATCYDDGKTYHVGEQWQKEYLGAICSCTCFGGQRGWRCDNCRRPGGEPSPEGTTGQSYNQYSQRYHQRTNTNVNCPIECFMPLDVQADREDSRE

Binder | Avg IC50, in vitro cytotoxicity on WI38-VA13 cells (Cell Titer Glo, 4 days)
EDB-(K94R)-vc-0101 (antibody, human IgG1, kappa, vc-0101 linker-payload on cysteine residues (conventional conjugation, Method A); vc-0101 linker-payload on cysteine residues (conventional conjugation, Method A); average DAR 3.7 (LC/MS)) heavy: not shown light: EIVLTQSPGTLSLSPGERATLSCRASQSVSSSFLAWYQQKPGQAPRLLIYYASSRATGIPDRFSGSGSGTDFTLTISRLEPEDFAVYYCQQTGRIPPTFGQGTKVEIKRTVAAPSVFIFPPSDEQLKSGTASVVCLLNNFYPREAKVQWKVDNALQSGNSQESVTEQDSKDSTYSLSSTLTLSKADYEKHKVYACEVTHQGLSSPVTKSFNRGEC | 184 ng/ml of antibody
EDB-(κK183C-K94R-K290C)-vc-0101 (antibody, human IgG1, kappa, vc-0101 linker-payload on engineered Cys 183 (κK183C, Kabat), Method B; vc-0101 linker-payload on engineered Cys 290 (K290C, EU index), Method B; average DAR 3.8 (LC/MS)) heavy: not shown light: EIVLTQSPGTLSLSPGERATLSCRASQSVSSSFLAWYQQKPGQAPRLLIYYASSRATGIPDRFSGSGSGTDFTLTISRLEPEDFAVYYCQQTGRIPPTFGQGTKVEIKRTVAAPSVFIFPPSDEQLKSGTASVVCLLNNFYPREAKVQWKVDNALQSGNSQESVTEQDSKDSTYSLSSTLTLSCADYEKHKVYACEVTHQGLSSPVTKSFNRGEC | 216 ng/ml of antibody
